Assay results from article PMC9352680, “A comprehensive thermodynamic model for RNA binding by the Saccharomyces cerevisiae Pumilio protein PUF4”.

T1: PUF4 RNA-binding domain (Saccharomyces cerevisiae, UniProt P25339 537-888)
T1 sequence: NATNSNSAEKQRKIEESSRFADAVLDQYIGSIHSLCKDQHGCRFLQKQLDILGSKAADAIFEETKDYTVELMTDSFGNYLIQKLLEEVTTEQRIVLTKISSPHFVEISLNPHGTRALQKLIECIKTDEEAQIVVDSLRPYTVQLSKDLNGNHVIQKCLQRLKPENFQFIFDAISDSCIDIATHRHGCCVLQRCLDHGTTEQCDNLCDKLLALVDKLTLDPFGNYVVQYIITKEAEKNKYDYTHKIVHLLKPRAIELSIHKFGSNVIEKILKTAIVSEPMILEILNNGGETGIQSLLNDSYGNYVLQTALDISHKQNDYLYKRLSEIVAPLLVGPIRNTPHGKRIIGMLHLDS


Biological target: T1, PUF4 RNA-binding domain
Test: Mg; RNA-MaP; 20 mM Na-HEPES pH 7.4, 30 mM KOAc, 0.75 mM MgCl2, 0.1% Tween-20, 5% glycerol, 0.1 mg/mL BSA, 2 mM DTT; 25 C; 0.0125-409.6 nM protein
Details: tags: N-His6-TEV cleaved; C-SNAP kept, Cy3B-labelled; label: tethered on chip by stalled RNA polymerase

Binder	Kd
Ie_S4_P3E.2_K3.1_C3.2_H3.1_[+3TTCC]_A3.1_F3.1_T3.2 (ssRNA) RNA: UUUGACAACUGAUCGUUCUUUCUCUUGUUUCCAUAUAUAUUCUUUCUCGAUCAGUUGUCUUU	23.4 nM
Ie_S4_P3E.2_K3.1_C3.2_H3.1_[+3CCCT]_A3.1_F3.1_T3.2 (ssRNA) RNA: UUUGACAACUGAUCGUUCUUUCUCUUGUCCCUAUAUAUAUUCUUUCUCGAUCAGUUGUCUUU	32.7 nM
Ie_S4_P3E.2_K3.1_C3.2_H3.1_A3.1_[+6C]_F3.1_T3.2 (ssRNA) RNA: UUUGACAACUGAUCGUUCUUUCUCUUGUAUACUAUAUUCUUUCUCGAUCAGUUGUCUUU	0.411 nM
Ie_S4_P3E.2_K3.1_C3.2_H3.1_A3.1_F3.1_[+8T]_T3.2 (ssRNA) RNA: UUUGACAACUGAUCGUUCUUUCUCUUGUAUAUAUUAUUCUUUCUCGAUCAGUUGUCUUU	1.33 nM
Ie_S4_P3E.2_K3.1_C3.2_H3.1_A3.1_F3.1_[+7C]_T3.2 (ssRNA) RNA: UUUGACAACUGAUCGUUCUUUCUCUUGUAUAUCAUAUUCUUUCUCGAUCAGUUGUCUUU	2.77 nM
Ie_S4_P4E.1_K4.1_C4.1_H4.1_[+1CTCT]_A4.1_F4.1_T4.1 (ssRNA) RNA: UUUGACAACUGAUCGUUCUUUCUUCUCUGUAUAUUAUUCUUUCUCGAUCAGUUGUCUUU	0.208 nM
Ie_S4_P3E.2_K3.1_C3.2_H3.1_[+3TCTCT]_A3.1_F3.1_T3.2 (ssRNA) RNA: UUUGACAACUGAUCGUUCUUUCUCUUGUUCUCUAUAUAUAUUCUUUCUCGAUCAGUUGUCUUU	11.8 nM
Ie_S4_P3E.2_K3.1_C3.2_H3.1_[+3CCTCT]_A3.1_F3.1_T3.2 (ssRNA) RNA: UUUGACAACUGAUCGUUCUUUCUCUUGUCCUCUAUAUAUAUUCUUUCUCGAUCAGUUGUCUUU	21.3 nM
Ie_S4_P3E.2_K3.1_C3.2_H3.1_[+3TTCCT]_A3.1_F3.1_T3.2 (ssRNA) RNA: UUUGACAACUGAUCGUUCUUUCUCUUGUUUCCUAUAUAUAUUCUUUCUCGAUCAGUUGUCUUU	19.9 nM
Ib_S2_P3E.1_K3.1_C3.1_H3.1_[G2A]_A3.1_[T5C]_F3.1_T3.1 (ssRNA) RNA: UUUGAUUAAUAUGAUAUCGUUCUUUCUUAUACAUAUUCUUUCUCGAUAUCAUAUUAAUCUUU	467 nM
Ib_S2_P3E.1_K3.1_C3.1_H3.1_[G2C]_A3.1_[A6C]_F3.1_T3.1 (ssRNA) RNA: UUUGAUUAAUAUGAUAUCGUUCUUUCUUCUAUCUAUUCUUUCUCGAUAUCAUAUUAAUCUUU	> 2300 nM
Ib_S2_P3E.1_K3.1_C3.1_H3.1_[G2C]_A3.1_[A6G]_F3.1_T3.1 (ssRNA) RNA: UUUGAUUAAUAUGAUAUCGUUCUUUCUUCUAUGUAUUCUUUCUCGAUAUCAUAUUAAUCUUU	87.4 nM
Ib_S2_P3E.1_K3.1_C3.1_H3.1_[G2A]_A3.1_[T5A]_F3.1_T3.1 (ssRNA) RNA: UUUGAUUAAUAUGAUAUCGUUCUUUCUUAUAAAUAUUCUUUCUCGAUAUCAUAUUAAUCUUU	1820 nM
Ie_S4_P4E.1_K4.1_C4.1_H4.1_[+1CTC]_A4.1_F4.1_T4.1 (ssRNA) RNA: UUUGACAACUGAUCGUUCUUUCUUCUCGUAUAUUAUUCUUUCUCGAUCAGUUGUCUUU	8.22 nM
Ie_S4_P4E.1_K4.1_C4.1_H4.1_[+2CTC]_A4.1_F4.1_T4.1 (ssRNA) RNA: UUUGACAACUGAUCGUUCUUUCUUGCUCUAUAUUAUUCUUUCUCGAUCAGUUGUCUUU	108 nM
Ie_S4_P5E.1_K5.1_C5.1_H5.1_A5.1_[+6CT]_F5.1_T5.1 (ssRNA) RNA: UUUGACAACUGAUCGUUCUUUCUUGUAUUCUAUUAUUCUUUCUCGAUCAGUUGUCUUU	2.21 nM
Ie_S4_P4E.1_K4.1_C4.1_H4.1_[+4CTC]_A4.1_F4.1_T4.1 (ssRNA) RNA: UUUGACAACUGAUCGUUCUUUCUUGUACUCUAUUAUUCUUUCUCGAUCAGUUGUCUUU	1.44 nM
Ie_S4_P4E.1_K4.1_C4.1_H4.1_[+1TCC]_A4.1_F4.1_T4.1 (ssRNA) RNA: UUUGACAACUGAUCGUUCUUUCUUUCCGUAUAUUAUUCUUUCUCGAUCAGUUGUCUUU	7.21 nM
Ie_S4_P5E.1_K5.1_C5.1_H5.1_A5.1_[+5CC]_F5.1_T5.1 (ssRNA) RNA: UUUGACAACUGAUCGUUCUUUCUUGUAUCCUAUUAUUCUUUCUCGAUCAGUUGUCUUU	3.27 nM
Ie_S4_P4E.1_K4.1_C4.1_H4.1_[+3TCC]_A4.1_F4.1_T4.1 (ssRNA) RNA: UUUGACAACUGAUCGUUCUUUCUUGUUCCAUAUUAUUCUUUCUCGAUCAGUUGUCUUU	7.68 nM
Ie_S4_P4E.1_K4.1_C4.1_H4.1_[+3CCC]_A4.1_F4.1_T4.1 (ssRNA) RNA: UUUGACAACUGAUCGUUCUUUCUUGUCCCAUAUUAUUCUUUCUCGAUCAGUUGUCUUU	15 nM
Ie_S4_P4E.1_K4.1_C4.1_H4.1_[+3TTT]_A4.1_F4.1_T4.1 (ssRNA) RNA: UUUGACAACUGAUCGUUCUUUCUUGUUUUAUAUUAUUCUUUCUCGAUCAGUUGUCUUU	12.7 nM
Ie_S4_P4E.1_K4.1_C4.1_H4.1_[+3TCT]_A4.1_F4.1_T4.1 (ssRNA) RNA: UUUGACAACUGAUCGUUCUUUCUUGUUCUAUAUUAUUCUUUCUCGAUCAGUUGUCUUU	6.36 nM

Binder	Kd
Ie_S4_P4E.1_K4.1_C4.1_H4.1_[+2TCC]_A4.1_F4.1_T4.1 (ssRNA) RNA: UUUGACAACUGAUCGUUCUUUCUUGUCCUAUAUUAUUCUUUCUCGAUCAGUUGUCUUU	8.71 nM
Ie_S4_P4E.1_K4.1_C4.1_H4.1_[+1TTT]_A4.1_F4.1_T4.1 (ssRNA) RNA: UUUGACAACUGAUCGUUCUUUCUUUUUGUAUAUUAUUCUUUCUCGAUCAGUUGUCUUU	0.249 nM
Ie_S4_P4E.1_K4.1_C4.1_H4.1_[+1CT]_A4.1_F4.1_T4.1 (ssRNA) RNA: UUUGACAACUGAUCGUUCUUUCUUCUGUAUAUUAUUCUUUCUCGAUCAGUUGUCUUU	0.223 nM
Ie_S4_P4E.1_K4.1_C4.1_H4.1_[+3CT]_A4.1_F4.1_T4.1 (ssRNA) RNA: UUUGACAACUGAUCGUUCUUUCUUGUCUAUAUUAUUCUUUCUCGAUCAGUUGUCUUU	31.2 nM
Ie_S4_P4E.1_K4.1_C4.1_H4.1_[+4TC]_A4.1_F4.1_T4.1 (ssRNA) RNA: UUUGACAACUGAUCGUUCUUUCUUGUAUCUAUUAUUCUUUCUCGAUCAGUUGUCUUU	6.67 nM
Ie_S4_P4E.1_K4.1_C4.1_H4.1_[+4CT]_A4.1_F4.1_T4.1 (ssRNA) RNA: UUUGACAACUGAUCGUUCUUUCUUGUACUUAUUAUUCUUUCUCGAUCAGUUGUCUUU	4.23 nM
Ie_S4_P4E.1_K4.1_C4.1_H4.1_[+2TT]_A4.1_F4.1_T4.1 (ssRNA) RNA: UUUGACAACUGAUCGUUCUUUCUUGUUUAUAUUAUUCUUUCUCGAUCAGUUGUCUUU	16.8 nM
Ie_S4_P3E.2_K3.1_C3.2_H3.1_A3.1_[+6TC]_F3.1_T3.2 (ssRNA) RNA: UUUGACAACUGAUCGUUCUUUCUCUUGUAUAUCUAUAUUCUUUCUCGAUCAGUUGUCUUU	2.11 nM
Ie_S4_P3E.2_K3.1_C3.2_H3.1_A3.1_F3.1_[+8CC]_T3.2 (ssRNA) RNA: UUUGACAACUGAUCGUUCUUUCUCUUGUAUAUACCUAUUCUUUCUCGAUCAGUUGUCUUU	2.91 nM
Ie_S4_P3E.2_K3.1_C3.2_H3.1_A3.1_F3.1_[+8CCCTT]_T3.2 (ssRNA) RNA: UUUGACAACUGAUCGUUCUUUCUCUUGUAUAUACCCUUUAUUCUUUCUCGAUCAGUUGUCUUU	6.29 nM
Ie_S4_P4E.1_K4.1_C4.1_H4.1_[+1CTCTC]_A4.1_F4.1_T4.1 (ssRNA) RNA: UUUGACAACUGAUCGUUCUUUCUUCUCUCGUAUAUUAUUCUUUCUCGAUCAGUUGUCUUU	5.7 nM
Ie_S4_P4E.1_K4.1_C4.1_H4.1_[+3TTCCT]_A4.1_F4.1_T4.1 (ssRNA) RNA: UUUGACAACUGAUCGUUCUUUCUUGUUUCCUAUAUUAUUCUUUCUCGAUCAGUUGUCUUU	22.7 nM
Ie_S4_P4E.1_K4.1_C4.1_H4.1_[+2CCTCT]_A4.1_F4.1_T4.1 (ssRNA) RNA: UUUGACAACUGAUCGUUCUUUCUUGCCUCUUAUAUUAUUCUUUCUCGAUCAGUUGUCUUU	118 nM
Ie_S4_P4E.1_K4.1_C4.1_H4.1_[+3CCCTT]_A4.1_F4.1_T4.1 (ssRNA) RNA: UUUGACAACUGAUCGUUCUUUCUUGUCCCUUAUAUUAUUCUUUCUCGAUCAGUUGUCUUU	51.6 nM
Ie_S4_P4E.1_K4.1_C4.1_H4.1_[+1CCCT]_A4.1_F4.1_T4.1 (ssRNA) RNA: UUUGACAACUGAUCGUUCUUUCUUCCCUGUAUAUUAUUCUUUCUCGAUCAGUUGUCUUU	0.155 nM
Ie_S4_P4E.1_K4.1_C4.1_H4.1_[+2TTCC]_A4.1_F4.1_T4.1 (ssRNA) RNA: UUUGACAACUGAUCGUUCUUUCUUGUUCCUAUAUUAUUCUUUCUCGAUCAGUUGUCUUU	23.9 nM
Ie_S4_P4E.1_K4.1_C4.1_H4.1_[+2CCTC]_A4.1_F4.1_T4.1 (ssRNA) RNA: UUUGACAACUGAUCGUUCUUUCUUGCCUCUAUAUUAUUCUUUCUCGAUCAGUUGUCUUU	105 nM
Ie_S4_P4E.1_K4.1_C4.1_H4.1_[+3CCTC]_A4.1_F4.1_T4.1 (ssRNA) RNA: UUUGACAACUGAUCGUUCUUUCUUGUCCUCAUAUUAUUCUUUCUCGAUCAGUUGUCUUU	66.1 nM
Ie_S4_P4E.1_K4.1_C4.1_H4.1_[+2C]_A4.1_F4.1_T4.1 (ssRNA) RNA: UUUGACAACUGAUCGUUCUUUCUUGCUAUAUUAUUCUUUCUCGAUCAGUUGUCUUU	148 nM
Ie_S4_P4E.1_K4.1_C4.1_H4.1_[+4T]_A4.1_F4.1_T4.1 (ssRNA) RNA: UUUGACAACUGAUCGUUCUUUCUUGUAUUAUUAUUCUUUCUCGAUCAGUUGUCUUU	4.34 nM
Ie_S4_P3E.2_K3.1_C3.2_H3.1_[+4CCC]_A3.1_F3.1_T3.2 (ssRNA) RNA: UUUGACAACUGAUCGUUCUUUCUCUUGUACCCUAUAUAUUCUUUCUCGAUCAGUUGUCUUU	1.57 nM
Ie_S4_P3E.2_K3.1_C3.2_H3.1_[+4CTC]_A3.1_F3.1_T3.2 (ssRNA) RNA: UUUGACAACUGAUCGUUCUUUCUCUUGUACUCUAUAUAUUCUUUCUCGAUCAGUUGUCUUU	1.08 nM
Ie_S4_P3E.2_K3.1_C3.2_H3.1_[+4CCT]_A3.1_F3.1_T3.2 (ssRNA) RNA: UUUGACAACUGAUCGUUCUUUCUCUUGUACCUUAUAUAUUCUUUCUCGAUCAGUUGUCUUU	1.24 nM
